To fix the notation:
B1: H2aM7794N (antibody, V domains shown)
VH: QLQLQESGPDLVKPSDTLSLTCTVSDDSISSTTYYWAWIRQPPGKGLEWIGSMSYNGNNYYNPSLKSRVAISAGTSQKQFSLKLTSVTAADTAVYHCARHLGYNGNWYPFDFWGQGILVTVSS
VL: not shown
notes: Human variable domains, mouse IgG2a Fc; also called H2M7794N
B2: H2aM7780N (antibody, mouse IgG2a, V domains shown)
VH: QVQLVESGGGVVQSGRSLRLSCAASGFTFSSYGMHWVRQAPGKGLEWVAVIWYDGSNIYYSDSVKGRFTISRANSKNTLYLQMNSLRAEDTAVYYCARPGHWNYFFEYWGQGTLVTVSS
VL: DIQMTQSPSSLSASVGDRVTITCRASQSINNYLNWYQQKPGKAPKLLIYTASSLQSGVPSRFSGSGSGTDFTLTISSLQPEDFATYYCQQSYSTPPLTFGQGTQLEIK
notes: also called H2M7780N
B3: H1M7789N (antibody, mouse IgG1, V domains shown)
VH: EVQLLESGGGLVQPGGSLRLSCSASGFTFSSYTMNWVRQAPGKGLEWVSGISDTGGNTYYTDSVKGRFTVSRDNSKNTLSLQMNSLRAEDTAVYYCAKDQGGSYPYYFHYWGQGSLVTVSS
VL: DIQMTQSPSSLSASVGDRVTITCRASQSISSYLIWYQQKPGTAPKFLIYAASSLQSGVPSRFSGCGSGTDFTLTISSLQPEDFATYYCQQSYSTPPITFGQGTRLEIK
notes: Human variable domains, mouse IgG1 Fc (H1M prefix)
B4: H4xH9120P2 (antibody, human IgG4, V domains shown)
VH: QVQLVQSGAEVKRPGASVKVSCKASGYTFTSFYMYWVRQAPGQGLEWMGIINPSDGSTSNAQKFQGRVTMTRDTSTSTVYMELSSLRSEDTAVYYCARRVAGDIFDIWGQGTMVTVSS
VL: not shown
notes: H4xH: modified human IgG4 Fc
B5: H4xH9135P2 (antibody, human IgG4, V domains shown)
VH: EVQLVESGGSVVRPGGSLRLSCVVSGFTFEDYGLSWVRQIPGKGLEWVSGISWTGGNTGYADSVKGRFTISRDNAKNSLYLQMNSLRAEDTALYHCTRDRQWLMQWYFDYWGQGTLVTVSS
VL: not shown
notes: H4xH: modified human IgG4 Fc
B6: H2aM7788N (antibody, mouse IgG2a, V domains shown)
VH: EVQLVESGGGLVQPGGSLRLSCGASGFTFRNYDMHWVRQITGKGLEWVSAIGSAGDTYYPDSVKGRFTISRENAKNSLYLQMNSLRVGDTAVYYCTRDIHCSSTRCYGMDVWGQGTTVTVSS
VL: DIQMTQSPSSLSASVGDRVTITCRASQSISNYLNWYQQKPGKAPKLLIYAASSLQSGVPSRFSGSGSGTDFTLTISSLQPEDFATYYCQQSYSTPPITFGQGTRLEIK
notes: Human variable domains, mouse IgG2a Fc; also called H2M7788N
B7: H1M7800N (antibody, mouse IgG1, V domains shown)
VH: EVQLVESGGGLVQPGGSLRLSCAASGFTVSNNYMSWVRQAPGKGLEWVSVIYSGGFTYYTDSVKGRFTISRHNSKNTLYLQMNSLRAEDTAVYYCARYYYDTSDYWTFFDYWGQGTLVTVSS
VL: EIVMTQSPATLSVSPGERATLSCRASQSVSSNLAWYQQKPGQAPRLLIYGASTRATGIPARFSGSGSGTEFTLTISSLQSGDFAVYYCQQYNNWPLTFGGGTKVEIN
notes: Human variable domains, mouse IgG1 Fc
B8: H4xH9037P (antibody, human IgG4, V domains shown)
VH: EVQLVESGGGLVQPGGSLRLSCAASGFTFDDYAMHWVRQAPGKGLEWVSGIGWSSGSIGYADSVKGRFTISRDNAKNSLYLQMDSLRPEDSALYYCAKAYTFMITLYFDYWGQGTLVTVSS
VL: not shown
notes: H4xH: modified human IgG4 Fc; also called H4xH9037P2
B9: H4H9019P (antibody, human IgG4, V domains shown)
VH: EVQLVESGGGVVRPGGSLRLSCAASGFTFDDYGMSWVRQVPGKGLEWVSGISWNDGKTVYAESVKGRFIISRDNAKNSLYLEMNSLRAEDTALYYCARDWQYLIERYFDYWGQGTLVTVSS
VL: not shown
notes: Fully human, human IgG4 Fc (H4H prefix)
B10: H4xH9035P (antibody, human IgG4, V domains shown)
VH: EVQLVESGGRVVRPGGSLRLSCAASGFTFDDYGMSWVRQLPGKGLEWVAGISWNDGKTVYAESVKGRFIISRDNAKNSLHLEMNSLRAEDTALYYCARDWQYLIDRYFDFWGQGTLVTVSS
VL: not shown
notes: H4xH: modified human IgG4 Fc; also called H4xH9035P2
B11: H4xH9034P (antibody, V domains shown)
VH: EVQLVESGGGVVRPGGSLRLSCTASGFTFDDYGMSWVRQAPGKGLEWISGIGWTGGRSSYADSVRGRFTISRDNAKNSLYLQMNSLGAEDTALYYCARDRQWLVQWYFDYWGQGTLVTVSS
VL: not shown
notes: Human IgG4 Fc with 2 or more amino acid changes as in US20100331527 (H4xH prefix); also called H4xH9034P2
B12: H4xH9128P2 (antibody, human IgG4, V domains shown)
VH: QVQLQESGPGLVKPSETLSLTCTVSGGSISSYHWNWIRQSPGKGLEWIGYIYYIGSTDYNPSLESRVTISVDTSKNQFSLKLSSVTAADTAVYYCARVPVGATGASDVWGQGTMVTVSS
VL: not shown
notes: H4xH: modified human IgG4 Fc
B13: H2aM7791N (antibody, mouse IgG2a, V domains shown)
VH: QMQLQQWGAGLLKPSETLSLTCVVYGGSLNGYYWSWIRQSPGKGLEWIGEIDHSGSTNYNPSLKNRVTMSVDTSKIQFSLKLTSVTVADTAVYYCAREGLLPFDYWGQGTLVTVSS
VL: EIVLTQSPGTLSLSPGERVTLSCRASQSVYSNYLAWYQQNPGQAPRLLIYAASNRATGIPDRFSGSGSGTDFTLTISRLEPEDFAVYYCHQYATSPWTFGQGTKVEIK
notes: Human variable domains, mouse IgG2a Fc; also called H2M7791N
B14: H4H7795N2 (antibody, human IgG4 S228P, kappa, V domains shown)
VH: EVQVVESGGGLVEPGRSLRLSCKASGFTFDDYAMHWVRQTPGKALEWVSGISWSGNNIGYADSVKGRFTISKDDAKNSLYLQMNSLRPEDTALYYCTKDISITGTLDAFDVWGQGTMVTVSS
VL: DIQMTQSPISVSASVGDRVTITCRASQGISNWLAWYQQKPGIAPKLLIYSASSLQSGVPSRFRGSGSGTDFTLTIGSLQPEDFATYYCQQAHSFPLTFGGGTKVEIKR
B15: H2aM7795N (antibody, mouse IgG2a, V domains shown)
VH: EVQVVESGGGLVEPGRSLRLSCKASGFTFDDYAMHWVRQTPGKALEWVSGINWSGNNIGYADSVKGRFTISKDDAKNSLYLQMNSLRPEDTALYYCTKDISITGTLDAFDVWGQGTMVTVSS
VL: DIQMTQSPISVSASVGDRVTITCRASQGISNWLAWYQQKPGIAPKLLIYSASSLQSGVPSRFRGSGSGTDFTLTIGSLQPEDFATYYCQQAHSFPLTFGGGTKVEIK
notes: Human variable domains, mouse IgG2a Fc; also called H2M7795N

This experiment deals with T1, recombinant human PD-1 expressed with a C-terminal myc-myc-hexahistidine tag (human).
T1 construct: also called hPD-1-MMH; human PD-1-MMH
Briefly: SPR (Biacore), mAb captured, hPD-1-MMH injected, 25 C.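 Note: rate constants obtained by fitting sensorgrams to a 1:1 binding model, KD derived as kd/ka and half-life as ln2/(60·kd) in minutes.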 In general terms: Surface plasmon resonance follows binding to a sensor surface in real time, without labels.
Method: Binding association and dissociation rate constants (kₐ and kd, respectively), equilibrium dissociation constants and dissociation half-lives (KD and t_{1/2}, respectively) for antigen binding to purified anti-PD1 antibodies were determined using a real-time surface plasmon resonance biosensor assay on a Biacore 4000 or Biacore T200 instrument. […] Experiments were performed at 25° C. and 37° C. Kinetic association (kₐ) and dissociation (kd) rate constants were determined by processing and fitting the data to a 1:1 binding model using Scrubber 2.0c curve fitting software. Binding dissociation equilibrium constants (KD) and dissociative half-lives (t_{1/2}) were then calculated from the kinetic rate constants as: KD(M)=kd/kₐ and t_{1/2} (min)=[In2/(60*kd)].
Broadly, the Kd is the free concentration of one partner at which half of the binding sites on the other are occupied at equilibrium, for simple one-to-one binding. The koff is the first-order rate constant of dissociation. Broadly, the kon is the rate constant with which the complex forms. As usually defined, the t½ is how long it takes for the measured level to halve. For B1, the Kd was 38 nM, the koff is 0.00212 s⁻¹, the kon is 55000 M⁻¹ s⁻¹ and the t½ was 5.4 min.

Take B2: the Kd came to 38.5 nM, the koff amounted to 0.000359 s⁻¹, the kon is 9320 M⁻¹ s⁻¹ and the t½ is 32 min.

In the case of B3, the Kd was 2.1 nM, the koff amounted to 5.31e-05 s⁻¹, the kon was 25300 M⁻¹ s⁻¹ and the t½ worked out at 218 min.

For the molecule B4, the Kd was determined as 30.1 nM, the koff amounted to 0.000998 s⁻¹, the kon worked out at 33200 M⁻¹ s⁻¹ and the t½ amounted to 12 min.

Take B5: the Kd came out at 10.2 nM, the koff amounted to 0.0012 s⁻¹, the kon was determined as 117000 M⁻¹ s⁻¹ and the t½ stood at 10 min.

For the molecule B6, the Kd is 19.6 nM, the koff was determined as 0.000388 s⁻¹, the kon was determined as 19700 M⁻¹ s⁻¹ and the t½ turned out to be 30 min.

For B7, the Kd was 161 nM, the koff worked out at 0.00947 s⁻¹, the kon was found to be 58800 M⁻¹ s⁻¹ and the t½ came out at 1.2 min.

With B8, the Kd was 10.9 nM, the koff was determined as 0.000795 s⁻¹, the kon was 73200 M⁻¹ s⁻¹ and the t½ is 15 min.

Turning to B9, the Kd turned out to be 39.4 nM.

Turning to B10, the Kd came to 4.62 nM, the koff was 0.000475 s⁻¹, the kon stood at 103000 M⁻¹ s⁻¹ and the t½ was determined as 24 min.

On to B11, for which the equilibrium dissociation constant (Kd) was 14.5 nM, the koff came out at 0.00149 s⁻¹, the kon was 102000 M⁻¹ s⁻¹ and the t½ was 7.8 min.

For the molecule B12, the Kd was determined as 14.5 nM, the koff came to 0.000719 s⁻¹, the kon worked out at 49500 M⁻¹ s⁻¹ and the t½ turned out to be 16 min.

Consider B13, for which the Kd amounted to 23.4 nM, the koff is 0.000706 s⁻¹, the kon was 30100 M⁻¹ s⁻¹ and the t½ is 16 min.

For B14, the Kd was 23.3 nM, the koff was 0.00148 s⁻¹, the kon is 63500 M⁻¹ s⁻¹ and the t½ was 8 min.

B15: the Kd worked out at 23.5 nM, the koff was 0.00115 s⁻¹, the kon was determined as 49100 M⁻¹ s⁻¹ and the t½ turned out to be 10 min.

The record behind these values is US20150203579A1 (Regeneron, published 2015).
